The target in this assay is MthK channel (Methanobacterium thermoautotrophicum) (UniProt O27564). Put plainly: single-channel recording in planar lipid bilayers.

“charybdotoxin (from UniProt P13487 23-59) (peptide)”: the Kd (as a rule, the concentration at which binding is half-saturated) was 1 nM. In other words, the single-digit nanomolar range.

Source of the values: article PMC2151542.
